From PMC9562052 come the findings set out here.

Data set [1] has as its target Plasmodium falciparum lactate dehydrogenase (PfLDH) (Plasmodium falciparum, UniProt Q76NM3 1-316). The experiment in a line: ELASA sandwich.
The target in data set [2] is human lactate dehydrogenase (hLDH) (human, UniProt P00338 1-332). Nature of the data set: ELASA sandwich.

B1: 2008s aptamer, 3'-biotin (ssDNA)
DNA: CTGGGCGGTAGAACCATAGTGACCCAGCCGTCTAC
Turning to B1, the figures for the binding result in data set [1] and in data set [2] were “binds” and “no binding”, respectively.
